Laboratory results from patent US12123009B2, “Methods and compositions for PPO herbicide tolerance in plants” (Monsanto Technology LLC, priority 2015, dated 2024).

B1: H_N50: microbial HemG protoporphyrinogen oxidase, SEQ ID NO:7 (SEQ ID NO:16 lacking start methionine) (protein, listed as Shimwellia blattae)
chain: MKTLILFSTRDGQTHKIARHIAGVLEEQGKACELVDLLQPGEPDWSTVECVVLGASIRYGHFHKSFIRFVNTHAQRLNNMPGALFTVNLVARKPEKQSPQTNSYTRKFLAASPWQPQRCQVFAGALRYPRYSWYDRMMIRLIMKMAGGETDTRKEVEYTDWQSVTRFAREIAQLPGETR
B2: H_N100: microbial HemG protoporphyrinogen oxidase, SEQ ID NO:9 (SEQ ID NO:17 lacking start methionine; variant 20) (protein, listed as Enterobacter cloacae)
chain: MKTLILFSTRDGQTREIAAFLASELKEQGIYADVINLNRTEEIAWQEYDRVVIGASIRYGHFHPAVDRFVKKHTETLNSLPGAFFSVNLVARKAEKRTPQTNSYTRKFLLNSPWKPAACAVFAGALRYPRYRWYDRFMIRLIMKMTGGETDTRKEVVYTDWSQVASFAREIVQLTRSSRL
B3: H_N30: microbial HemG protoporphyrinogen oxidase, SEQ ID NO:5 (SEQ ID NO:14 lacking start methionine) (protein, listed as Erwinia toletana)
chain: MKALILFSSREGQTREIASYIANSIKEEMECDVFNILRVEQIDWSQYDRVLIGGSIHYGHFHPAVAKFVKRHLHELQQRSSGFFCVNLTARKADKRTPQTNAYMRKFLLQSPWQPDCCAVFAGALRYTRYRWFDRVMIQLIMRMTGGETDTSKEVEYTDWTQVARFAQEFAHLPGKTQ
B4: H_N20: microbial HemG protoporphyrinogen oxidase, SEQ ID NO:2 (SEQ ID NO:12 lacking start methionine) (protein, listed as Pantoea ananatis)
chain: MKALILFSTRDGQTQKIASAIADEIKGQQSCDVINIQDAKTLDWQQYDRVLIGASIRYGHFQPVVNEFVKHNLLALQQRVSGFFSVNLTARKPEKRSPETNAYTVKFLAQSPWQPDCCAVFAGALYYPRYRWFDRVMIQFIMRMTGGETDASKEVEYTDWQQVQRFARDFAQLPGKSY

Key:
soybean plantlets = assay: High-throughput soybean screening for herbicide tolerance (plantlets); format: in vivo, soybean (A3555); set-up: key: 0 for poor tolerance, high damage, low green coloration; 1 for some tolerance, average damage, moderate green coloration; 2 for good tolerance, low damage, high green coloration; conditions: S-3100 spray five weeks post-transformation, scored day four
Text: A high-throughput plant transformation and screening method was used to evaluate large numbers of constructs in transgenic plants for herbicide tolerance in early transformation plantlet tissue. This allowed for faster and higher volume screening of construct configurations and PPO enzymes.
This permitted the side-by-side comparison of seven different HemG PPO enzymes with thirty-seven different targeting peptides using the same promoter and 3′UTR elements for gene expression. These plant transformation constructs were used to transform soybean excised embryos (germplasm A3555) using A. tumefaciens and standard methods known in the art. Four hundred explants were inoculated for each construct resulting in twelve containers per construct. A sterile PPO herbicide solution was used for herbicide tolerance testing. The herbicide solution consisted of 0.3 g of S-3100 in crop oil concentrate (5.0 mL) and 495 mL of deionized water. This was filtered through a 0.45 micron Nalgene® Rapid-Flow™ Tissue Culture Filter Unit and Surfactant-Free Cellulose Acetate membrane filter unit (VWR, Radnor, PA, USA). The resulting sterile solution was shaken before application.
At five weeks post-transformation, four of the twelve plant containers per construct were sprayed with two passes of the sterile PPO herbicide solution. The treated plantlets were then enclosed in the container and received at least 15 hours of light exposure post spray each day for four days. At the end of day four post application of S-3100, the treated plantlets were photographed and scored on a visual scale of green coloration (green coloration was representative of healthy photosynthetic plant tissue as compared to photo-bleached tissue) versus damage. The scoring values were 0 for poor tolerance, high damage, low green coloration; 1 for some tolerance, average damage, moderate green coloration; and 2 for good tolerance, low damage, high green coloration. The scoring for each construct is presented in Table 9, where n.d. indicates the analysis was not conducted.

R0 soybean plants = assay: R0 transgenic soybean herbicide tolerance at eleven weeks; format: in vivo; conditions: R0 plants sprayed with S-3100 at eleven weeks, rated seven days after treatment
Protocol: The plantlets in the non-sprayed containers corresponding to constructs having a score of 2 were transplanted at approximately 7 weeks post transformation and grown as R0 plants using standard methods known in the art. Plantlets corresponding to non-tolerant scores of 0 and 1 were also grown to serve as negative controls. The R0 plants were grown in a greenhouse under long-day nursery conditions (18 hr light at 80° F. then 6 hr dark at 74° F.) for approximately four weeks. At eleven weeks, the R0 plants were sprayed with two passes of the same herbicide solution (0.3 g of 5-3100) described above. Herbicide injury ratings were collected seven days after treatment.
The results of the herbicide tolerance application at eleven weeks to the R0 plants confirmed the low percent injury rating scores observed in the high-throughput screen at five weeks. Any injury rating of 30% or above was equivalent to non-transgenic soybean injury ratings. A few of the constructs stood out as providing very good tolerance to the herbicide application. […] Data are provided in Table 10, where n.d. indicates the analysis was not conducted.

| Molecule | coloration score (soybean plantlets; TP9) | coloration score (soybean plantlets; TP10) | coloration score (soybean plantlets; TP11) | coloration score (soybean plantlets; TP12) | coloration score (soybean plantlets; TP13) | coloration score (soybean plantlets; TP14) | coloration score (soybean plantlets; TP15) | coloration score (soybean plantlets; TP16) | coloration score (soybean plantlets; TP17) | coloration score (soybean plantlets; TP18) | coloration score (soybean plantlets; TP19) | coloration score (soybean plantlets; TP21) | coloration score (soybean plantlets; TP22) | coloration score (soybean plantlets; TP23) | coloration score (soybean plantlets; TP24) | coloration score (soybean plantlets; TP27) | coloration score (soybean plantlets; TP28) | coloration score (soybean plantlets; TP29) | coloration score (soybean plantlets; TP33) | percent injury score (R0 soybean plants; TP15) [%] | further results |
| --- | --- | --- | --- | --- | --- | --- | --- | --- | --- | --- | --- | --- | --- | --- | --- | --- | --- | --- | --- | --- | --- |
| B1 | 1 | 1 | 0 | 1 | 1 | 1 | 2 | 0 | 1 | 1 | 0 | 1 | 2 | 1 | 1 | 1 | 1 | 1 | 1 | 40 | coloration score (soybean plantlets; TP25): 2; coloration score (soybean plantlets; TP26): 1; coloration score (soybean plantlets; TP30): 1; coloration score (soybean plantlets; TP31): 0; coloration score (soybean plantlets; TP32): 1; coloration score (soybean plantlets; TP34): 0; coloration score (soybean plantlets; TP36): 0; coloration score (soybean plantlets; TP37): 0; percent injury score (R0 soybean plants; TP9): 40%; percent injury score (R0 soybean plants; TP13): 40%; percent injury score (R0 soybean plants; TP14): 40%; percent injury score (R0 soybean plants; TP17): 40%; percent injury score (R0 soybean plants; TP22): 40%; percent injury score (R0 soybean plants; TP25): 35% |
| B2 | 0 | 1 | 0 | 2 | 0 | 1 | 2 | 1 | 1 | 1 | 1 | 0 | 2 | 2 | 0 | 1 | 1 | 1 | 1 | 30 | coloration score (soybean plantlets; TP20): 2; coloration score (soybean plantlets; TP25): 1; coloration score (soybean plantlets; TP30): 1; coloration score (soybean plantlets; TP31): 1; coloration score (soybean plantlets; TP32): 2; coloration score (soybean plantlets; TP34): 0; coloration score (soybean plantlets; TP35): 1; coloration score (soybean plantlets; TP36): 1; percent injury score (R0 soybean plants; TP10): 35%; percent injury score (R0 soybean plants; TP12): 50%; percent injury score (R0 soybean plants; TP20): 35%; percent injury score (R0 soybean plants; TP22): 30%; percent injury score (R0 soybean plants; TP23): 35%; percent injury score (R0 soybean plants; TP28): 35%; percent injury score (R0 soybean plants; TP29): 40%; percent injury score (R0 soybean plants; TP32): 40%; percent injury score (R0 soybean plants; TP35): 35% |
| B3 | 1 | 0 | 1 | 1 | 1 | – | 1 | – | 1 | 0 | 0 | – | – | – | 1 | 0 | 0 | 1 | 1 | 35 | coloration score (soybean plantlets; TP26): 0; percent injury score (R0 soybean plants; TP1): 5%; percent injury score (R0 soybean plants; TP9): 35%; percent injury score (R0 soybean plants; TP11): 35%; percent injury score (R0 soybean plants; TP26): 35% |
| B4 | 1 | – | 1 | 2 | 2 | 0 | 1 | 1 | 2 | 1 | 1 | 0 | 1 | 1 | 1 | 1 | 1 | 1 | 1 | 30 | coloration score (soybean plantlets; TP20): 2; coloration score (soybean plantlets; TP25): 1; coloration score (soybean plantlets; TP26): 1; coloration score (soybean plantlets; TP30): 1; coloration score (soybean plantlets; TP31): 1; coloration score (soybean plantlets; TP32): 0; percent injury score (R0 soybean plants; TP12): 20%; percent injury score (R0 soybean plants; TP13): 20%; percent injury score (R0 soybean plants; TP17): 25%; percent injury score (R0 soybean plants; TP20): 20%; percent injury score (R0 soybean plants; TP29): 30% |
